According to patent US12385902B2, “Methods for generating and screening compartmentalised peptide libraries” (UNIVERSITY OF SOUTHAMPTON, priority 2017, dated 2025):
“Also recorded” adds a separate entry of the source.

Legend:
AB42-GFP fusion = molecular target: T1, AB42-GFP fusion (Homo sapiens, UniProt P05067); assay: In vitro expression in microfluidic droplets of AB42-GFP fusion with cyclic peptide; aggregation assay read by FACS green fluorescence; format: biochemical; settings: double emulsion droplets, IVTT 2 h at 37° C., relative to buffer alone, IVTT alone and cyclo-CA5
T1 construct: In vitro expression in microfluidic droplets of AB42-GFP fusion with cyclo-TAFDR; made in house; host or cells: cell-free in vitro transcription/translation (IVTT)
T1 sequence (P05067 672-713 limits assumed): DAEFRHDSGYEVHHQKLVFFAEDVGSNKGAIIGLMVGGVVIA
Description: FIG. 17. In vitro expression in microfluidic droplets of AB42-GFP fusion with cyclo-TAFDR (SEQ ID NO: 7) (Matis et al.). Vector CSpDuetNpuHisAB42-GFP was utilised for the cloning of TAFDR (SEQ ID NO: 7) into MCS1. Thereafter, plasmid DNA was encapsulated into agarose droplets alongside isothermal DNA amplification reaction components and incubated overnight. Agarose beads were prepped as previously stated and re-encapsulated together with IVTT. A final emulsification step was performed to yield FACS compatible double emulsions. A negative control vector in the presence of CA5 was likewise constructed to verify cyclo-TAFDR (SEQ ID NO: 7) AB42-GFP aggregation inhibition.
When GFP is produced as an aggregating fusion, its fluorescence is lost; however, when the aggregation is disrupted by TAFDR (SEQ ID NO: 7), the GFP can fluoresce. See Mathis et al., Nature Biomedical Engineering volume 1, pages 838-852 (2017).
We have used the Δβ42 aggregation assay to assess the performance of the system of the invention. This assay has previously been combined with a SICLOPPS screen (Mathis et al.), so cyclo-TAFDR (SEQ ID NO: 7) is a validated positive cyclic peptide control.
Vector CSpDuetNpuHisAB42-GFP was utilised for the cloning of TAFDR (SEQ ID NO: 7) into MCS1. […]

[1] = tested on: Alzheimer's protein Δβ42 fused to GFP; settings: Mathis et al., Nature Biomedical Engineering 2017; cited from earlier work
Chain of Alzheimer's protein Δβ42 fused to GFP (P05067 672-713 limits assumed, stated change not applied): as the sequence (P05067 672-713 limits assumed) above

Question: For cyclo-TAFDR (cyclised), which “green fluorescence (GFP) upon cyclic peptide expression, associated with disruption of Aβ aggregation” value (AB42-GFP fusion) is on record?
Answer: Its value is “positive shift in green fluorescence; also recorded: significant increase in fluorescence”.

Question: What about the “inhibition of aggregation of Aβ42 fused to GFP” value [1] of the same substance?
Answer: Its value is “inhibit aggregation”.
